From patent US20190185569A1 (published 2019)

How the values were obtained:
[1] = biological target: T cell surface antigens CTLA4 and PD-1; experiment: flow cytometry, PHA-stimulated CD4+ T cells; Ab 100 nM
[2] = biological target: T1, PD-1 antigen obtained by digesting PD-1-mFc with TEV protease (UniProt Q15116 25-170, limits assumed, biotin-labelled (sites not given)); experiment: BLI (Fortebio), biotin-PD-1 on SA sensor, antibody in solution
T1 construct: extracellular domain; also called antigen PD-1
Experimental: The antibodies were diluted with PBST from 200 nM down three fold each time. The dissociation was also in PBST.

PD-1-mFc [3] = biological target: T2, PD-1-mFc (mouse, UniProt Q15116 25-170 (human entry), limits assumed); experiment: competition ELISA, coat PD-1-mFc 0.2 ug/mL, PDL1-hFc 2 ug/ml
T2 construct: extracellular domain; a TEV site is implied; not shown: mouse IgG Fc fragment (mFc)

PD-1-mFc [4] = biological target: T2, PD-1-mFc; experiment: indirect ELISA, coat PD-1-mFc 0.5 ug/mL
Experimental: TMB (Neogen, 308177) was added to react for 5 mins. The absorbance was read at the wavelength of 450 nm in a microplate reader.

[5] = biological target: T3, CTLA4 antigen obtained by digesting CTLA4-mFc with TEV protease (human, UniProt P16410 36-161); experiment: BLI (Fortebio), antibody amine-coupled on AR2G sensor, CTLA4 in solution
T3 construct: extracellular domain; Biotin-labelled when immobilised on SA sensors; also called CTLA4 protein; antigen CTLA4
Experimental: 1.2 Antibody 4G10 was immobilized to AR2GBiosensors by amine coupling method, and then blocked with ethanolamine and equilibrating in PBST, and then bound to CTLA4. CTLA4 was double gradient diluted with PB ST to the concentrations of 268.1, 134.1, 67, 33.5, 16.8, 8.38, 4.19, and 0 nM. The dissociation was also in PBST.

T3 sequence (P16410 36-161): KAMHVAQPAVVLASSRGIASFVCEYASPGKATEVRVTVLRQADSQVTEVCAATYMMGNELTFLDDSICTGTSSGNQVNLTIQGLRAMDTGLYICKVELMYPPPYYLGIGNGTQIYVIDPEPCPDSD
T1 sequence (Q15116 25-170 limits assumed): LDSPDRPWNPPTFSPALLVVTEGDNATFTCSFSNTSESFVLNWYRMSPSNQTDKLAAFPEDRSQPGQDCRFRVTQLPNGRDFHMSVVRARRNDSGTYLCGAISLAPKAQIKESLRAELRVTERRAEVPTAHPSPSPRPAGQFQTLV
T2 sequence (Q15116 25-170 limits assumed): as above

hIgG (antibody)
MFI (fluorescence intensity) [1]: 10.2

B1: monoclonal antibody 14C12 (antibody, V domains shown)
VH: EVKLVESGGGLVKPGGSLKLSCAASGFAFSSYDMSWVRQTPEKRLEWVATISGGGRYTYYPDSVKGRFTISRDNARNTLYLQMSSLRSEDTALYYCANRYGEAWFAYWGQGTLVTVSA
VL: DIKMTQSPSSMYASLGERVTFTCKASQDINTYLSWFQQKPGKSPKTLIYRANRLVDGVPSRFSGSGSGQDYSLTISSLEYEDMGIYYCLQYDEFPLTFGAGTKLEL
notes: Mouse hybridoma antibody; also called antibody secreted by hybridoma LT003 (PD-1-14C12)
Kd [2]: 0.0181 nM | koff [2]: 6.12e-06 s⁻¹ | kon [2]: 338000 M⁻¹ s⁻¹ | EC50 (PD-1-mFc [3]): 0.853 nM | EC50 (PD-1-mFc [4]): 0.175 nM

B2: monoclonal antibody 4G10 (antibody, V domains shown)
VH: QVKLQESGPELVKPGASMKISCKASGYSFTGYTMNWVKQSHGKNLEWIGLINPYNNITNYNQKFMGKATFTVDKSSSTAYMELLRLTSEDSGVYFCARLDYRSYWGQGTLVTVSA
VL: QAVVTQESALTTSPGETVTLTCRSSTGAVTTSNFANWVQEKPDHLFTSLIGGTNNRAPGVPARFSGSLIGDKAALTITGAQTEDEAIYFCALWYSNHWVFGGGTKLTVLG
notes: Mouse hybridoma antibody purified on protein A; also called antibody secreted by hybridoma LT002 (CTLA4-4G10)
Kd [5]: 0.301 nM | koff [5]: 0.000114 s⁻¹ | kon [5]: 378000 M⁻¹ s⁻¹
